Here are results for 5 molecules from patent publication US20200399386A1 (CELGENE, published 2020).

For experiment [1], the target named is T1, BAFF receptor (UniProt Q96RJ3 1-184, limits assumed).
T1 construct: whole, on cells
T1 sequence (looked up): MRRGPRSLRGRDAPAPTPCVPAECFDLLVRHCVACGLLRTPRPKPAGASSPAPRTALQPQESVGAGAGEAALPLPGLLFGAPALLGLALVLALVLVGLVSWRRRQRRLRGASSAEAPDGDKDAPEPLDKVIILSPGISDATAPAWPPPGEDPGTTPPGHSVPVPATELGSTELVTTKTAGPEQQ
Description: flow cytometry, dose response on NUDHL1 cells. From the text: (§1) FACS Analysis: FACs antibodies used in this study include: 1) LS-C106982-100 Mouse Monoclonal to Human TNFRSF12A-R-Phycoerythrin (PE) (LifeSpan BioSciences, Inc.); 2) EM901 has been previously characterized as a BCMA-binding antibody (Mab42; International Application Number WO2017/021450); 3) Ebiosciences anti-human IgG Fey-specific, labeled with PE; 4) Human IgG isotype control; 5) Anti-TACI antibody [1A1](Abcam); 6) BAFF Receptor antibody 8A7 (ThermoFisher); 7) BCMA antibody 19F2 (BioLegend). Each cell type (75,000 cells/well) was incubated with primary antibodies in FACs buffer (PBS containing 0.2% BSA) for 25 min in a 96 well plate. Cells were washed once with FACs buffer and incubated with 1:100 dilution secondary antibody for 25 min. After washing once, cells were fixed for 10 min with 1% paraformaldehyde, washed with FACs buffer and resuspended in 100 μL FACs buffer. Labeled cells were analyzed using an Attune NxT Flow Cytometer and data processed using FlowJo 10.0.8r1 (FLOWJO LLC), according to the manufacturer's instructions.
(§2) The reactivity of each mAb was monitored by FACs. […] Geometric means quantifying these binding interactions are shown (FIG. 5).
In general terms: Flow cytometry measures light scatter and fluorescence of single cells or particles in a stream.

The target of experiment [2] is T2, TACI (UniProt O14836 1-293, limits assumed).
T2 construct: whole, on cells
T2 sequence (looked up): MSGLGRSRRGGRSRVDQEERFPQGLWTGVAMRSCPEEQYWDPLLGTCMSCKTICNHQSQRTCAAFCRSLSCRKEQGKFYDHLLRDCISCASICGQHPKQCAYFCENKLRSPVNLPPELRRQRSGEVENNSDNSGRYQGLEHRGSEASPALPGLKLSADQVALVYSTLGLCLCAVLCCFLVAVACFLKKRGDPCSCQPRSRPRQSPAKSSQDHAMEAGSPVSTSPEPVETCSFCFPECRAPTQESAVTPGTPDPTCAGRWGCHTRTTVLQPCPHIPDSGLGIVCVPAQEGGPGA
As to the kind of experiment: flow cytometry, dose response on NUDHL1 cells.
Description: as §1, §2

For experiment [3], the target named is T3, human BCMA (human, UniProt Q02223 1-184).
T3 construct: whole, on cells; Transfected (C6-BCMA) and endogenous (myeloma lines) forms are treated as the same protein on cells; also called B-cell maturation antigen; TNFRSF17
T3 sequence (looked up): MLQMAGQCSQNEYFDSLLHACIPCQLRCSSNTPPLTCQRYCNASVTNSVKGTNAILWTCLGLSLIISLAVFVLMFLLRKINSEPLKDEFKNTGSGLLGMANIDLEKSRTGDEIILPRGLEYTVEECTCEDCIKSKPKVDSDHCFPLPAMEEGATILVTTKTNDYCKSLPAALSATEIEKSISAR
As to the kind of experiment: flow cytometry on NCIH929 cells.
Description: as §1
The reactivity of each mAb was monitored by FACs. The EM901 antibody, that recognizes BCMA, robustly bound NCIH929 cells. […] Geometric means quantifying these binding interactions are shown (FIG. 4).

The target of experiment [4] is T4, human TNFRSF12A (human, UniProt Q9NP84 28-129).
T4 construct: whole, on cells; also called TWEAKR
T4 sequence (looked up): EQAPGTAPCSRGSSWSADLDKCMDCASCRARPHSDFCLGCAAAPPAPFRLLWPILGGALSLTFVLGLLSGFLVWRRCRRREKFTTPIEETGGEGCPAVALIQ
Description: flow cytometry on Hek293 cells stably transfected with human TNFRSF12A.
Description: as §1
The reactivity of each antibody was monitored by FACs. An anti-TNFRSF12A antibody stained Hek293-TNFRSF12A cells, indicative of TNFRSF12A expression. […] Geometric means quantifying these binding interactions are shown (FIG. 3).

Experiment [5] has as its target T3, human BCMA. As to the kind of experiment: flow cytometry on C6 cells stably transfected with human BCMA, 0.4 ug/ml antibody.
Description: as §1
(§3) The reactivity of each antibody was monitored by FACs. […] Geometric mean values quantifying these binding interactions are included (FIG. 2).

Experiment [6] deals with T3, human BCMA. As to the kind of experiment: flow cytometry on C6 cells expressing human BCMA.
Description: as §1, §3

B1: 320111 (antibody, IgG1, V domains shown)
VH: QLPLQESGPGLVKPSETLSLTCTVSGGSIRSSSYYWGWIRQPPGKGLEWIGTIYYSGSTYYNPSLKSRVTISVDTSKNQLSLKLSSVTAADTAVYYCARPYYDSSGYYYYWGQGTLVTVSS
VL: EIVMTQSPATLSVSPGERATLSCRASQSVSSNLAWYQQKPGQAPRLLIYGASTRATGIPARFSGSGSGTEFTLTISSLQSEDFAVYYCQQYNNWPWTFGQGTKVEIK
As to B1, the binding result in experiment [1] is listed as “no binding”; in experiment [2], “no binding”; in experiment [3], “binds”; in experiment [4], “no binding (tested: 0.4 ug/ml)”.

B2: 319966 (antibody, IgG1, V domains shown)
VH: QLQLQESGPGLVKPSETLSLTCTVSGSSISRSNYYWGWIRQPPGKGLEWIGTFYYSGTTYYNPSLKSRVTISEDTSKKQLSLNLRSVTAADTAVYYCARPSGYTTSWGQGTLVTVSS
VL: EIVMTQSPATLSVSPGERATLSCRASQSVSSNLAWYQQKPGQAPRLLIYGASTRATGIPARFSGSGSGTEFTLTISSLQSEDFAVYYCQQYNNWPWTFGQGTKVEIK
notes: also called human IgG antibody 319966
On to B2, for which the binding result in experiment [3] was “binds”; in experiment [4] it was “no binding (tested: 0.4 ug/ml)”.

B3: 319883 (antibody, IgG1, V domains shown)
VH: QLQLQESGPGLVKPSDTLSLTCTVSGGSISSSNSYWGWIRQSPGRGLEWIGRIYYSGITHYNPSLKSRVTISVDTSKNQFSLKLSSVTAADTAVYYCASPYKWNDGNFFGWGQGTLVTVSS
VL: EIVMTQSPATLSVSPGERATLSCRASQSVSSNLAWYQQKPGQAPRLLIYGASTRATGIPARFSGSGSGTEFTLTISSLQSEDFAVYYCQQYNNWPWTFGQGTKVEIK
In the case of B3, the binding result in experiment [5] is “binds”; in experiment [4] it was “no binding (tested: 0.4 ug/ml)”.

B4: 320199 (antibody, IgG1, V domains shown)
VH: QLQLQESGPGLVKPSETLSLTCTVSGGSISSSNSYWGWIRQSPGRGLEWIGRIYYSGITHYNPSLKSRVTISVDTSKNQFSLKLSSVTAADTAVYYCASPYKWNDGNFFGWGQGTLVTVSS
VL: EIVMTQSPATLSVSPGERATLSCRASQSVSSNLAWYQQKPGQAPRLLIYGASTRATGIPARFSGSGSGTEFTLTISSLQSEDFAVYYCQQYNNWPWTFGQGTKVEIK
notes: also called human IgG antibody 320199
In the case of B4, the binding result is “binds” in experiment [5] and “no binding (tested: 0.4 ug/ml)” in experiment [4].

B5: 320262 (antibody, IgG1, V domains shown)
VH: QLQLQESGPGLVKPSETLSLTCTVSGGSISNSNYYWGWIRQPPGKGLEWIGNIYYSGRTYYTPSLKSRVTISEDTSKNQFSLKVRSVTVADTGVYYCARPDYYGSGTIAWGQGTLVTVSS
VL: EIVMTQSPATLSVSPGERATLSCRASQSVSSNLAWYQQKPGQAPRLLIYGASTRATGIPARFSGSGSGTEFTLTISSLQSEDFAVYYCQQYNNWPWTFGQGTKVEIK
Regarding B5, the binding result was “no binding” in experiment [1], “no binding” in experiment [2], “binds” in experiment [6] and “no binding (tested: 0.4 ug/ml)” in experiment [4].
